In assay [1] the target is T1, ubiquitin acetylated at K11 (UniProt P0CG48 1-76, acetyllysine (AcK) at position 11).
T1 construct: ubiquitin (Ub), the 76-residue cut product of its precursors; codon-optimized cDNA; K11 replaced by acetyllysine; 15N isotopically labelled in the NMR titration; also called Ub 11AcK; source: E. coli B834 (DE3), amber suppression with AcK-RS/tRNA, purified (HisTrap, His-tag removed with UCHL3, HiTrap SP); not shown: His6, C-terminal, cleaved
Nature of the assay: NMR titration; unlabelled Ubiquilin-2 UBA domain added stepwise to 15N-labelled Ub variants (33 µM Ub 11AcK and nonmodified Ub; 157 µM the other variants); 1H-15N HSQC, 298 K, 18.8 T, 20 mM NaH2PO4 pH 6.8, 5% D2O; global fit of six residues assuming 1:1 binding. Particulars: both partners purified.

A further assay has as its target T2, nonmodified ubiquitin (UniProt P0CG48 1-76).
T2 construct: ubiquitin (Ub), the 76-residue cut product of its precursors; codon-optimized cDNA; 15N isotopically labelled in the NMR titration; also called Ub (wt); source: E. coli, purified (HisTrap, His-tag removed with UCHL3, HiTrap SP); not shown: His6, C-terminal, cleaved
The assay is described as above. Particulars: both partners purified.

Kd data for one molecule are collected here from PMC9481602 (Nature Communications, 2022).

In general, Kd refers to the constant that tells how readily two partners part at equilibrium. A low value points to a tighter complex.

B1: UBA domain of human Ubiquilin-2 (domain or fragment, UniProt Q9UHD9 581-621, looked up)
chain: RFQQQLEQLNAMGFLNREANLQALIATGGDINAAIERLLGS
notes: Ubiquilin-2 (Chap1, hPLIC-2), human, UBA domain; Unlabelled; also called UQ2-UBA; Chap1; source: E. coli BL21 (DE3) Rosetta, purified (Glutathione Sepharose, TEV cleavage, SEC); not shown: GST, N-terminal, cleaved
Take B1: the Kd in assay [1] is 8 ± 0.8 µM; in the assay with nonmodified ubiquitin, 2 ± 0.4 µM.
